Patent US20230272099A1 (Chugai, published 2023)
Numbering of substitutions follows the chain as printed.

T1: human FcgRIIa type H extracellular domain (human, UniProt P12318 34-217)
T1 construct: extracellular domain; also called hFcgRIIaH
T1 sequence (looked up): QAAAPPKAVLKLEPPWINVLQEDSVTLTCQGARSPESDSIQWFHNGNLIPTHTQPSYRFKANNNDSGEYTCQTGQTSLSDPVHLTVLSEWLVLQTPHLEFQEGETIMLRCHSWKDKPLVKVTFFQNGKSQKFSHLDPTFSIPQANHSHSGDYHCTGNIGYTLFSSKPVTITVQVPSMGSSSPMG

T2: human FcgRIIa type R extracellular domain (human, UniProt P12318 34-217)
T2 construct: extracellular domain; also called hFcgRIIaR
T2 sequence (looked up): T1 sequence (looked up) with H134R

T3: human FcgRIIb extracellular domain (human, UniProt P31994 43-217)
T3 construct: extracellular domain; also called hFcgRIIb
T3 sequence (looked up): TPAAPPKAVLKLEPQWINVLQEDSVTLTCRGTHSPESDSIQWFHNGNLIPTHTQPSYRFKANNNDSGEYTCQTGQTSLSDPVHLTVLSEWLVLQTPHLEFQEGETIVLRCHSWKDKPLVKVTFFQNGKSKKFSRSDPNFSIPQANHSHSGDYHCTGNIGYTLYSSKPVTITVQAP

B1: A375-SCF039a/B167-Lamlib (antibody, human IgG1, lambda)
heavy: EVQLVESGGGLVKPGGSLRLSCAASGFTFSTFTMNWVRQAPGKGLEWVSSISSKSTYIEYADSFKVRFTISRDNAKNSLYLQMNSLRAEDTAVYYCARYGAKNFLNWVFDYWGQGTLVTVSSASTKGPSVFPLAPSSKSTSGGTAALGCLVKDYFPEPVTVSWNSGALTSGVHTFPAVLQSSGLYSLSSVVTVPSSSLGTQTYICNVNHKPSNTKVDKRVEPKSCDKTHTCPPCPAPELWNGPSVFLFPPKPKDTLMISRTPEVTCVVVDVSDEDPEVKFNWYVDGVEVHNAKTKPREELYNSTYRVVSVLTVLHQDWLNGKEYKCKVSNTALPKPIEKTISKAKGQRREPQVYTLPPSREEMTKNQVSLTCLVKGFYPSDIAVEWESNGQPENNYKTTPPVLDSDGSFFLYSKLTVDKSRWQQGNVFSCSVMHEALHNHYTQKSLSLSP
light: QSALTQPPSASGSPGQTVTISCTGTRYDVGYYEYVSWYQQHPGKAPKLMIYETSKRLSGVPDRFSGSKSGNTASLTVSGLQAEDEADYYCSSYRYEHQVSFGGGTKLTVLGQPKAAPSVTLFPPSSEELQANKATLVCLISDFYPGAVTVAWKADSSPVKAGVETTTPSKQSNNKYAASSYLSLTPEQWKSHRSYSCQVTHEGSTVEKTVAPTECS
B2: A375-SCF040/B167-Lamlib (antibody, human IgG1, lambda)
heavy: B1 heavy with R219K, R348P, D418K
light: B1 light
notes: copies: 2 + 2
B3: A375-SCF043a/B167-Lamlib (antibody, human IgG1, lambda)
heavy: B1 heavy with W240L, L300Q, T331K, D418K
light: B1 light
B4: A375-SCF042a/B167-Lamlib (antibody, human IgG1, lambda)
heavy: B1 heavy with W240L, L300Q, T331K, R348P, D418K
light: B1 light
notes: copies: 2 + 2
B5: A375-SCF041a/B167-Lamlib (antibody, human IgG1, lambda)
heavy: B1 heavy with W240L, L300Q, T331K
light: B1 light
B6: A375-SCF041aPh/B167-Lamlib (antibody, human IgG1, lambda)
heavy: B1 heavy with L300Q, T331K
light: B1 light
B7: A375-SCF043aPh/B167-Lamlib (antibody, human IgG1, lambda)
heavy: B1 heavy with L300Q, T331K, D418K
light: B1 light

biological target: T4, human FcgRIa extracellular domain (human, UniProt P12314 16-292); experiment: SPR 25C
T4 construct: extracellular domain; also called hFcgRIa
T4 sequence (P12314 16-292): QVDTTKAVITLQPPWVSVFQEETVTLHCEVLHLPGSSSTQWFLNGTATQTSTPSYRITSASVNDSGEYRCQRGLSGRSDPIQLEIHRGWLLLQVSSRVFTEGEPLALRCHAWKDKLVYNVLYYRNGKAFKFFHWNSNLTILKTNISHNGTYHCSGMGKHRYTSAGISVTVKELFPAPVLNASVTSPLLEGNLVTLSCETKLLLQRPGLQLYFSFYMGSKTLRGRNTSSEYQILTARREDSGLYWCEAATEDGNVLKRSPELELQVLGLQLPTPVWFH

| Binder | binding per 1RU antibody [RU] | relative binding (A375-G1T3/B167-Lamlib=1) |
| --- | --- | --- |
| B1 | 0.0018 | 0.02 |
| B2 | 0.0016 | 0.02 |
| B3 | 0.0429 | 0.53 |
| B4 | 0.0396 | 0.49 |
| B5 | 0.0446 | 0.55 |
| B6 | 0.0013 | 0.02 |
| B7 | 0.0011 | 0.01 |

biological target: T1, human FcgRIIa type H extracellular …; experiment: SPR 25C

| Binder | binding per 1RU antibody [RU] | relative binding (A375-G1T3/B167-Lamlib=1) |
| --- | --- | --- |
| B1 | 0.0542 | 0.96 |
| B2 | 0.0454 | 0.8 |
| B3 | 0.0552 | 0.97 |
| B4 | 0.0522 | 0.92 |
| B5 | 0.0571 | 1.01 |
| B6 | 0.0371 | 0.65 |
| B7 | 0.0349 | 0.62 |

biological target: T2, human FcgRIIa type R extracellular …; experiment: SPR 25C

| Binder | binding per 1RU antibody [RU] | relative binding (A375-G1T3/B167-Lamlib=1) |
| --- | --- | --- |
| B1 | 0.0554 | 1.2 |
| B2 | 0.0446 | 0.96 |
| B3 | 0.0361 | 0.78 |
| B4 | 0.0327 | 0.71 |
| B5 | 0.0376 | 0.81 |
| B6 | 0.0371 | 0.8 |
| B7 | 0.0349 | 0.75 |

biological target: T3, human FcgRIIb extracellular domain; experiment: SPR 25C

| Binder | binding per 1RU antibody [RU] | relative binding (A375-G1T3/B167-Lamlib=1) |
| --- | --- | --- |
| B1 | 0.054 | 4.93 |
| B2 | 0.0465 | 4.24 |
| B3 | 0.0419 | 3.82 |
| B4 | 0.0393 | 3.59 |
| B5 | 0.0433 | 3.95 |
| B6 | 0.035 | 3.2 |
| B7 | 0.0339 | 3.1 |

biological target: T5, human FcgRIIIa F158 extracellular domain (human, UniProt P08637 17-208); experiment: SPR 25C
T5 construct: extracellular domain; also called hFcgRIIIaF
T5 sequence (P08637 17-208): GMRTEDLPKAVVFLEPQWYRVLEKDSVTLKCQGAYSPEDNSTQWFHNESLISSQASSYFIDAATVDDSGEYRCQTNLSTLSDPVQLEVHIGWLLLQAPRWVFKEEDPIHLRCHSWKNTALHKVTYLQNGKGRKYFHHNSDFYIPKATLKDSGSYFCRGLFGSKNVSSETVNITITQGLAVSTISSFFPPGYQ

| Binder | binding per 1RU antibody [RU] | relative binding (A375-G1T3/B167-Lamlib=1) |
| --- | --- | --- |
| B1 | 0.0012 | 0.06 |
| B2 | 0.001 | 0.05 |
| B3 | 0.0011 | 0.05 |
| B4 | 0.0003 | 0.01 |
| B5 | 0.0009 | 0.04 |
| B6 | 0.0007 | 0.03 |
| B7 | 0.0001 | 0 |

biological target: T6, human FcgRIIIa V158 extracellular domain (human, UniProt P08637 17-208); experiment: SPR 25C
T6 construct: extracellular domain; also called hFcgRIIIaV
T6 sequence (P08637 17-208 F176V): as the sequence (P08637 17-208) above, with F160V counted along it

| Binder | binding per 1RU antibody [RU] | relative binding (A375-G1T3/B167-Lamlib=1) |
| --- | --- | --- |
| B1 | 0.0013 | 0.02 |
| B2 | 0.0013 | 0.02 |
| B3 | 0.0025 | 0.04 |
| B4 | 0.0014 | 0.02 |
| B5 | 0.0022 | 0.03 |
| B6 | 0.0005 | 0.01 |
| B7 | 0.0001 | 0 |

biological target: human FcRn (human, UniProt P55899 24-290; P61769 21-119); experiment: SPR 25C pH 6.0, steady state
Sequence (P55899 24-290 limits assumed, chain 1 of 2): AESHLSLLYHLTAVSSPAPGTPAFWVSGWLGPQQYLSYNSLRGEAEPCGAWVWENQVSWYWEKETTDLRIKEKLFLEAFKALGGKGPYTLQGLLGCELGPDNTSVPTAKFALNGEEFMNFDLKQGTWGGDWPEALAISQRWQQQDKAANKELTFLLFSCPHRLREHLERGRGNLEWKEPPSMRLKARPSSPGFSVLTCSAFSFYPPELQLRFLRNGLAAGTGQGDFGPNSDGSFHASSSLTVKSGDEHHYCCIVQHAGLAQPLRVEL
Sequence (P61769 21-119 limits assumed, chain 2 of 2): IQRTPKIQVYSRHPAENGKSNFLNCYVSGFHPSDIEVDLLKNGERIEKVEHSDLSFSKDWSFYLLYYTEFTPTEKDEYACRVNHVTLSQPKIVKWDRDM
Summary of the method: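 Antibody (~400 RU) captured on anti-Fab-lambda sensor chip, human FcRn injected as analyte.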

| Binder | Kd [nM] |
| --- | --- |
| B1 | 1110 |
| B2 | 1460 |
| B3 | 1180 |
| B4 | 1490 |
| B5 | 1100 |
| B6 | 1130 |
| B7 | 1210 |
